Results as given in patent US20090275637.

Target: T1, PTP1B catalytic domain (321 residues), GST fusion (Homo sapiens) (UniProt P18031)
T1 sequence: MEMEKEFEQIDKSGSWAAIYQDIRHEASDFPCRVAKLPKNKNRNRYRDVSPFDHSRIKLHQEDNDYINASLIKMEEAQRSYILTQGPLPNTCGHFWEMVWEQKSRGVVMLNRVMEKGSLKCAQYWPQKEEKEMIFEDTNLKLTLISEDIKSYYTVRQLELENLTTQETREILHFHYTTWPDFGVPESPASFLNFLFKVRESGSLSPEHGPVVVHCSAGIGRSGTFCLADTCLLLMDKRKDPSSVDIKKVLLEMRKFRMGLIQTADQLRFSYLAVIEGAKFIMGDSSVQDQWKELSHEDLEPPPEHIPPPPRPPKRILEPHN
Assay: filter
Settings: round 0 pool, 200-400 nM PTP1B, 125 mM NaCl, 5 mM MgCl2

Sequence: GGGAAUGGAUCCACAUCUACGAAUUCNNNNNNNNNNNNNNNNNNNNNNNNNNNNNNUUCACUGCAGACUUGACGAAGCUU [N30 initial pool]
- binding: < 1 % retained
